Measurements reported in PMC4721540, “Selective activators of protein phosphatase 5 target the auto-inhibitory mechanism” (Bioscience Reports, 2015).

B1: PPH-5 (protein phosphatase homologue), PP5 from nematode origin (enzyme, C. elegans, UniProt Q9NES8 1-496, looked up)
chain: MAATITDDIVATVLESIEEKSYEDEKEKAGMIKDEANQFFKDQVYDVAADLYSVAIEIHPTAVLYGNRAQAYLKKELYGSALEDADNAIAIDPSYVKGFYRRATANMALGRFKKALTDYQAVVKVCPNDKDARAKFDECSKIVRRQKFEAAISTDHDKKTVAETLDINAMAIEDSYDGPRLEDKITKEFVLQLIKTFKNQQKLHKKYAFKMLLEFYNYVKSLPTMVEITVPTGKKFTICGDVHGQFYDLCNIFEINGYPSETNPYLFNGDFVDRGSFSVETIFTMIGFKLLYPNHFFMSRGNHESDVMNKMYGFEGEVKAKYTQQMCDMFTETFCWLPLCHLINEKIFVCHGGLFKEDGVTLEDIRKTDRNRQPPDEGIMCDLLWSDPQPINGRSPSKRGVGCQFGPDVTSKWCETNGIEYVVRSHEVKPEGYEMHHNGQCFTVFSAPNYCDQMNNKGAFITITGDNLTPRFTPFDAVPHPKLPPMAYANSLFGFN
notes: PPH-5, the protein phosphatase 5 homologue of C. elegans; also called nematode PPH-5; PPH-5 (C. elegans); source: cloning and purification as described before [32-35]

Assays:
[1] = biological target: T1, YFP-CeHsp90/DAF-21 (C. elegans, UniProt Q18688 1-702); experiment: AUC; sedimentation velocity with fluorescence detection; 300 nM labelled YFP–Hsp90, 3 μM PPH-5; 40 mM HEPES/KOH, pH 7.5, 20 mM KCl, 1 mM DTT; 20°C, 142000 g, 12 h; P5SAs at maximal soluble concentrations or 60 μM C-terminal Hsp90/DAF-21 peptide added where indicated; settings: both partners purified
T1 construct: Hsp90 of C. elegans (CeHsp90/DAF-21); Detected in the AUC by YFP fluorescence; also called YFP–Hsp90; YFP-tagged Hsp90; source: cloning and purification as described before [32-35]

[2] = biological target: B1; experiment: as above; settings: both partners purified

Row | Binder | binding result [1] | binding result [2]
1 | B1 | binds | –
2 | AEEDASRMEEVD (C-terminal peptide of Hsp90/DAF-21 of C. elegans; also called MEEVD peptide; MEEVD-containing peptide; source: bought: Biomatik) [C-terminal Hsp90/DAF-21 peptide (AEEDASRMEEVD)] | – | binds
